According to patent US20230136228A1 (LAMKAP BIO ALPHA, published 2023):
Numbering of substitutions follows the chain as printed. Names may count otherwise.

How the values were obtained:
Assay in all cases: flow cytometry, MFI on transfected PEAK cells divided by MFI on WT PEAK cells
human CEACAM4 = biological target: T1, human CEACAM4 (human, UniProt O75871 36-244)
T1 construct: whole, on cells
T1 sequence (looked up): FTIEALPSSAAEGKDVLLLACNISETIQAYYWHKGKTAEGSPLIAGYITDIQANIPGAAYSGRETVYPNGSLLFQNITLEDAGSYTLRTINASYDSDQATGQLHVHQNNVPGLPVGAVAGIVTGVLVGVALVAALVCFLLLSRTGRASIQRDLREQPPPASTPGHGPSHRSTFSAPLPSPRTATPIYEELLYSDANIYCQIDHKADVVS
Method: (§1) Similarly, vectors encoding the full-length version of cyno CEACAM 5 and 6 are also used to express these proteins at the surface of PEAK and/or CHO cells. Non-transfected PEAK and/or CHO cells are used as negative control. Cells are harvested, counted, checked for viability and resuspended at 3×10⁶ cells/ml in FACS buffer (PBS 2% BSA, 0.1% NaN₃). 100 μl of the cell suspension are distributed in V-bottom 96-well plates (3×10⁵ cells/well). The supernatant is removed by centrifugation 3 minutes at 4° C., 1300 rpm and the cells incubated for 15 minutes at 4° C. with increasing concentrations of the antibody according to the invention. The antibodies carrying the anti-CEACAM5 arms to test are diluted in FACS buffer and the concentration range is 30 pM-500 nM. Cells are washed twice with cold FACS buffer and re-incubated for further 15 minutes at 4° C. with a compatible anti-human IgG secondary antibody. Cells are washed twice with cold FACS buffer and resuspended in 300 μl FACS buffer with 1:1500-diluted TOPRO-3 (Invitrogen). Fluorescence is measured using a FACSCalibur™ (BD Biosciences) or a Cytoflex Platform (Beckman Coulter). Dose-response binding curves are fitted using GraphPad Prism8 software. In the same manner, CEACAM1, CEACAM6 and other CEACAMs can be characterized.
(§2) For the bispecific antibodies AB17L3-1/N, AB71L3-1/N, AB72L3-1/N, AB73L3-1/N the MFI measured for binding to CEACAM5 transfected cells was found between 29000 and 41000 (Table 2). In contrast MFI found by using PEAK cells transfected with CEACAM 1,3,4,6,8 were found below 1000 with the only exception of a strong signal for AB72L3-1/N on CEACAM8 transfected cells. When MFI values obtained on transfected cells expressing any given CEACAM are divided by the values obtained on WT PEAK cells, “factors to PEAK WT” can be calculated (Table 3). With the exception of AB72L3-1/N, the antibodies of the invention are all specific to CEACAM5, as the “factor to PEAK WT” values are all below 2.0.

human CEACAM8 = biological target: T2, human CEACAM8 (human, UniProt P31997 35-320)
T2 construct: whole, on cells
T2 sequence (looked up): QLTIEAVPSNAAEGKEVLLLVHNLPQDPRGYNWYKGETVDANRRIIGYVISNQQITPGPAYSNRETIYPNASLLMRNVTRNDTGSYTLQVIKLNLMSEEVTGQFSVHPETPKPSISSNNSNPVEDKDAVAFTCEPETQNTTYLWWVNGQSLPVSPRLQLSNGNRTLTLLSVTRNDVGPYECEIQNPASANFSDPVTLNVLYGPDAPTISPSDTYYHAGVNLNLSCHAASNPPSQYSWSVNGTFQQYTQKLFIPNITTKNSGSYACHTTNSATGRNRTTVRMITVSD
Method: as §1, §2

human CEACAM6 = biological target: T3, human CEACAM6 (human, UniProt P40199 35-320)
T3 construct: whole, on cells; also called CD66c
T3 sequence (looked up): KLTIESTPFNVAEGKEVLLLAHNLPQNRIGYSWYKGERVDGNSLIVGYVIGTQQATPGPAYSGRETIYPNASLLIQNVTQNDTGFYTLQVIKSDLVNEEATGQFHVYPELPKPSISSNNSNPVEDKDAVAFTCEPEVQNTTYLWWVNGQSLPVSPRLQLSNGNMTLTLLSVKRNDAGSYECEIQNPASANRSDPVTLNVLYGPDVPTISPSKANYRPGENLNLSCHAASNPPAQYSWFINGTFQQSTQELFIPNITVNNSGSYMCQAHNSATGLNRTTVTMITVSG
Method: as §1, §2

human CEACAM1 = biological target: T4, human CEACAM1 (human, UniProt P13688 35-526)
T4 construct: whole, on cells
T4 sequence (looked up): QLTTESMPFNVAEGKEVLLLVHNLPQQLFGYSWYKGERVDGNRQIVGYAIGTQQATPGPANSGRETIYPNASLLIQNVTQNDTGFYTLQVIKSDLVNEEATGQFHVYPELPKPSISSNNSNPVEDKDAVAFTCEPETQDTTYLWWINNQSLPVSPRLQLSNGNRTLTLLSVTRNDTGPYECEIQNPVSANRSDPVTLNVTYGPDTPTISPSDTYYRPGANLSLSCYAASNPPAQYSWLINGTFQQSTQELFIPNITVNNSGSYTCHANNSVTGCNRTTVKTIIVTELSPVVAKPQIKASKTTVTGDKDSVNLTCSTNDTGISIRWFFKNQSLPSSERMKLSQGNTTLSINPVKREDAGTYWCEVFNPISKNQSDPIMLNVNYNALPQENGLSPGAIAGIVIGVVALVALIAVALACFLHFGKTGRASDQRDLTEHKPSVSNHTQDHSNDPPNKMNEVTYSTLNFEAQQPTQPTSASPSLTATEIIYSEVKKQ
Method: as §1, §2

B1: AB17L3-1/N (bispecific antibody, human IgG1, kappa, lambda, L234A L235A)
heavy: EVQLVESGGGLVQPGGSLKLSCAASGFTFNTYAMNWVRQAPGKGLEWVGRIRSKYNNYATYYADSVKDRFTISRDDSKNTAYLQMNSLKTEDTAVYYCVRHGNFGNSYVSWFAYWGQGTLVTVSSASTKGPSVFPLAPSSKSTSGGTAALGCLVKDYFPEPVTVSWNSGALTSGVHTFPAVLQSSGLYSLSSVVTVPSSSLGTQTYICNVNHKPSNTKVDKRVEPKSCDKTHTCPPCPAPEAAGGPSVFLFPPKPKDTLMISRTPEVTCVVVDVSHEDPEVKFNWYVDGVEVHNAKTKPREEQYNSTYRVVSVLTVLHQDWLNGKEYKCKVSNKALAAPIEKTISKAKGQPREPQVYTLPPSREEMTKNQVSLTCLVKGFYPSDIAVEWESNGQPENNYKTTPPVLDSDGSFFLYSKLTVDKSRWQQGNVFSCSVMHEALHNHYTQKSLSLSPG
light 1: EIVLTQSPATLSLSPGERATLSCRASQSVNSNLNWYQQKPGQAPRLLIYHGSNRATGIPARFSGSGSGTDFTLTISSLEPEDFAVYYCQQFDYFKEHNTFGQGTKVEIKRTVAAPSVFIFPPSDEQLKSGTASVVCLLNNFYPREAKVQWKVDNALQSGNSQESVTEQDSKDSTYSLSSTLTLSKADYEKHKVYACEVTHQGLSSPVTKSFNRGEC
light 2: QTVVTQEPSLTVSPGGTVTLTCRSSTGAVTTSNYANWFQQKPGQAPRGLIGGTNKRAPGTPARFSGSLLGGKAALTLSGAQPEDEAEYYCALWYKQRWVFGGGTKLTVLGQPKAAPSVTLFPPSSEELQANKATLVCLISDFYPGAVTVAWKADSSPVKAGVETTTPSKQSNNKYAASSYLSLTPEQWKSHRSYSCQVTHEGSTVEKTVAPTECS
notes: Kappa-lambda body, lead optimization wave 1
Human CEACAM4
  Factor to PEAK WT: 0.8 fold
Human CEACAM8
  Factor to PEAK WT: 0.8 fold
Human CEACAM6
  Factor to PEAK WT: 1 fold
Human CEACAM1
  Factor to PEAK WT: 1.2 fold

B2: AB1L3-1/N (bispecific antibody, human IgG1, kappa, lambda, L234A L235A)
heavy: B1 heavy
light 1: B1 light 1 with Y93L, F94R, K95H
light 2: B1 light 2
notes: Kappa-lambda body: common heavy chain (hIgG1 L234A+L235A+P329A), kappa CEA light chain AB1, lambda CD3 light chain L3-1 (1A4); also called parental KL bispecific antibody
Human CEACAM4
  Factor to PEAK WT: 0.7 fold
Human CEACAM8
  Factor to PEAK WT: 0.7 fold
Human CEACAM6
  Factor to PEAK WT: 0.8 fold
Human CEACAM1
  Factor to PEAK WT: 1 fold

B3: AB72L3-1/N (bispecific antibody, human IgG1, kappa, lambda, L234A L235A)
heavy: B1 heavy
light 1: B1 light 1 with G51S, S52T, A55P, T56R, H97Y
light 2: B1 light 2
notes: Kappa-lambda body, lead optimization wave 2
Human CEACAM4
  Factor to PEAK WT: 0.8 fold
Human CEACAM8
  Factor to PEAK WT: 13.1 fold
Human CEACAM6
  Factor to PEAK WT: 1.2 fold
Human CEACAM1
  Factor to PEAK WT: 1.4 fold

B4: AB71L3-1/N (bispecific antibody, human IgG1, kappa, lambda, L234A L235A)
heavy: B1 heavy
light 1: B1 light 1 with G51S, A55P, T56H
light 2: B1 light 2
notes: as for B3
Human CEACAM4
  Factor to PEAK WT: 0.7 fold
Human CEACAM8
  Factor to PEAK WT: 0.9 fold
Human CEACAM6
  Factor to PEAK WT: 1 fold
Human CEACAM1
  Factor to PEAK WT: 1 fold

B5: AB73L3-1/N (bispecific antibody, human IgG1, kappa, lambda, L234A L235A)
heavy: B1 heavy
light 1: B1 light 1 with G51S, S52N, A55P, T56H, K95R, H97Y
light 2: B1 light 2
notes: as for B3
Human CEACAM4
  Factor to PEAK WT: 0.7 fold
Human CEACAM8
  Factor to PEAK WT: 0.8 fold
Human CEACAM6
  Factor to PEAK WT: 1 fold
Human CEACAM1
  Factor to PEAK WT: 1.1 fold
